Article PMC6885550
Where two headings read alike, the source gives them in different places.

What was measured:
Experiment in all cases: FRET or BRET
[1] = biological target: YFP-DWORF (dwarf open reading frame) (UniProt P0DN84)
[2] = biological target: YFP-DWORF (dwarf open reading frame) (UniProt P0DN84); remark: listed apart in the source
[3] = biological target: YFP-sarcolipin (SLN) (UniProt O00631)
[4] = biological target: YFP-sarcolipin (SLN) (UniProt O00631); remark: listed apart in the source

YFP-sarcolipin (SLN) (from UniProt O00631 1-31) (natural protein), sequence (O00631 whole entry): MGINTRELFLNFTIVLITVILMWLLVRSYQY

Substance: YFP-DWORF (dwarf open reading frame) (from UniProt P0DN84 1-35) (natural protein)
- percent of donors in FRET (oligomer subpopulation) [1]: 20%
- percent of donors in FRET (oligomer subpopulation) [2]: 23.4%

Substance: YFP-sarcolipin (SLN) (from UniProt O00631 1-31) (natural protein)
- stoichiometry N [3]: > 2
- stoichiometry N [4]: 2
